We go through 4 molecules from patent US20230292718A1, “METHOD FOR CONSTRUCTING MODEL OF VITILIGO AND THE USE OF THE MODEL” (NATIONAL INSTITUTE OF BIOLOGICAL SCIENCES, BEIJING, priority 2020, published 2023).

Test [1] concerns activated CD8+OT1 T cells. Put plainly: T cell transwell migration assay with recombinant chemokines. Format: cell-based, mouse. As to conditions: recombinant protein at increasing concentrations in lower chamber, 3 hr incubation. As to the method: Transwell migration of lymphocytes was performed with mature CTLs and concentrated fibroblast conditioned medium. In brief, splenocytes isolated from OT-1 mice were stimulated with OVA257-264 for 3 days in the presence of 10 ng/mL IL2. Cells were centrifuged and cultured in fresh medium containing 10 ng/mL IL2 for 1 more day, after which most of the cells in the culture were CTLs. To measure CD8+ T cell cytotoxicity, B16F10 expressing OVA peptide was mixed in the killing medium at the ratios of 1:1. After 6 hs, the cytotoxic efficiency was confirmed by B16F10 cell survival.
To further identify the secreted factors involved in this process, we first performed RNA-seq analysis of fibroblasts from WT and IFNGR1 KO mice at Day 33 after vitiligo induction, alongside WT mice without vitiligo induction (FIG. 6C). […] Next we compared the single cell transcriptome data of progressive state vitiligo patients fibroblasts and healthy donors fibroblasts. Unsupervised clustering performed by spectral clustering method separates fibroblasts into 4 sub-clusters in healthy donors and 5 sub-clusters in progressive state vitiligo patients (FIG. 6D). […] Comparison of the human and mouse vitiligo fibroblasts specific secreted protein gene signatures, we identified 29 overlapped genes. Among them 11 are conserved major histocompatibility complex genes and 6 are chemokines, including CCL5, CCL8, CCL19, CXCL3, CXCL9 and CXCL10 (FIG. 6F-6G). […]
RFP expressing WT or IFNGR1 KO fibroblasts were intradermally injected into the tail skin of IFNGR1 KO mice. After vitiligo induction on the host mice, CD8+ T cell infiltration was analyzed by whole-mount immunofluorescent staining and quantification. […] Cells were collected from both chambers and counted by flow cytometry after 3 hr incubation. […] After 3 hr incubation, CD8+ T cell migration index was calculated by dividing the number of migrated cells (cells in lower chamber) using the number of migrated plus unmigrated cells (cells in upper chamber+lower chamber).

Test [2] relates to primary mouse fibroblasts. Put plainly: QPCR analysis of IFN-γ treated primary fibroblasts using target gene CXCL10 as readout. Format: cell-based. As to the method:
Total RNAs were isolated from FACS-sorted cells with Trizol followed by extraction using Direct-Zol RNA mini-prep Kit (Zymo research). For cDNA synthesis, equal amounts of RNA were reverse-transcribed by Oligo-dT (Vazyme, R222-01). Expression levels were normalized to the expression of PPIB. Real time PCR was conducted using a CFX96TM Real-Time system (Bio-RAD) with Power SYBRR Green PCR Master Mix (Life Technologies). All primer pairs were designed for the same cycling conditions: 10 min at 95° C. for initial denaturing, 40 cycles of 10 s at 95° C. for denaturing, 30 s at 62° C. for annealing, and 10 s at 65° C. for extension. The primers were designed to produce a product spanning exon-intron boundary in each of the target genes.
Primary fibroblasts isolated from WT or IFNGR1 KO newborn mice dorsal skin were infected with lentivirus expressing shRNA and RFP in vitro. The RFP+ fibroblasts were then intradermally injected into P56 mice tail skin. The presence and location of injected cells were examined 2 weeks later. […] Primary mouse fibroblasts were treated with IFN-γ of increasing dosage and duration time in vitro. Treatment time ranges from 6 hrs to 48 hrs; and IFN-γ concentration gradients range from 5 U/mL to 200 U/mL. […] Primary mouse fibroblasts were treated with increasing dosage of IFN-γ for 6 hrs in vitro. IFN-γ concentration gradients range from 5 U/mL to 1000 U/mL. […]

The subject of the next test is 3T3 fibroblasts. Put plainly: qPCR analysis of shRNA effect in blocking IFN-γ response (GBP2 reporter). The test is classed as cell-based, mouse. As to conditions: 6 hrs IFN-γ treatment, cells expressing scrambled shRNA.

B1: CXCL10: recombinant chemokine protein added to lower chamber of transwell (protein, UniProt P17515 22-98, looked up)
C-X-C motif chemokine 10: IPLARTVRCNCIHIDDGPVRMRAIGKLEIIPASLSCPRVEIIATMKKNDEQRCLNPESKTIKNLMKAFSQKRSKRAP
For the molecule B1, the “CD8+ T cell migration (migration index)” value in test [1] is on record as “induce CD8+ T cell migration in a dosage dependent manner”.

B2: CCL19: recombinant chemokine protein added to lower chamber of transwell (protein, UniProt O70460 26-108, looked up)
C-C motif chemokine 19: GANDAEDCCLSVTQRPIPGNIVKAFRYLLNEDGCRVPAVVFTTLRGYQLCAPPDQPWVDRIIRRLKKSSAKNKGNSTRRSPVS
As for B2, the “CD8+ T cell migration (migration index)” value in test [1] is on record as “induce CD8+ T cell migration in a dosage dependent manner”.

B3: CXCL9: recombinant chemokine protein added to lower chamber of transwell (protein, UniProt P18340 22-126, looked up)
C-X-C motif chemokine 9: TLVIRNARCSCISTSRGTIHYKSLKDLKQFAPSPNCNKTEIIATLKNGDQTCLDPDSANVKKLMKEWEKKISQKKKQKRGKKHQKNMKNRKPKTPQSRRRSRKTT
With B3, in test [1], the “CD8+ T cell migration (migration index)” value is on record as “induce CD8+ T cell migration in a dosage dependent manner”.

B4: IFN-γ: recombinant interferon gamma used to treat fibroblasts in vitro (protein, UniProt P01580 23-155, looked up)
Interferon gamma: HGTVIESLESLNNYFNSSGIDVEEKSLFLDIWRNWQKDGDMKILQSQIISFYLRLFEVLKDNQAISNNISVIESHLITTFFSNSKAKKDAFMSIAKFEVNNPQVQRQAFNELIRVVHQLLPESSLRKRKRSRC
As for B4, the “IFN-γ concentration inducing maximum activation (CXCL10 expression level)” value in test [2] (6 hrs in vitro, gradient 5 U/mL to 1000 U/mL) is given as 1000 U/mL. In addition, the CXCL10 expression result in test [2] (IFN-γ 5 U/mL to 200 U/mL, 6 hrs to 48 hrs) is “induced by IFN-γ in a dosage dependent manner”. In addition, in the test with 3T3 fibroblasts, the GBP2 expression level entry was “significantly increased”.
